Assay results as given in a protein production outcome set (Wang et al. 2014).

Assay: label from the status in PepcDB records
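Also: failed if final PepcDB status was selected cloned or expressed and not failed if soluble or beyond.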

For “MSAEVETSEGVDESEKKNSGALEKENQMRMADLSELLKEGTKEAHDRAENTQFVKDFLKGNIKKELFKLATTALYFTYSALEEEMERNKDHPAFAPLYFPMELHRKEALTKDMEYFFGENWEEQVQCPKAAQKYVERIHYIGQNEPELLVAHAYTRYMGDLSGGQVLKKVAQRALKLPSTGEGTQFYLFENVDNAQQFKQLYRARMNALDLNMKTKERIVEEANKAFEYNMQIFNELDQAGSTLARETLEDGFPVHDGKGDMRKCPFYAAEQDKGALEGSSCPFRTAM”, the protein production was “not failed”.
In the case of “MDVLIFNSWHWWTHTSGLQPWDYMREGNQLYKDMNRLVAYYKGLNTWARWINNNIVPSRTQVFFQGVSPVHYDGREWNEPLKSCNGQTQPFMGQRYPGGLPLGWVVVNKVLSRIRKPVHLLDLTTLSEYRKDAHPSLYNGISKDLDCSHWCLPGLPDTWNLLLYSSLTS”, the protein production is reported as “failed”.
In the case of “MAGLSGAQIPDGEFTAVVYRLIRNARYAEAVQLLGGELQRSPRSRAGLSLLGYCYYRLQEFALAAECYEQLGQLHPELEQYRLYQAQALYKACLYAEATRVAFLLLDNPAYHSRVLHLQAAIKYSEGDLPGSRSLVEQLPSREGGEESGGENETDGQINLGCLLYKEGQYEAACSKFFAALQASGYQPDLSYNLALAYYSSRQYASALKHIAEIIERGIRQHPELGVGMTTEGIDVRSVGNTLVLHQTALVEAFNLKAAIEYQLRNYEAAQEALTDMPPRAEEELDPVTLHNQALMNMDARPTEGFEKLQFLLQQNPFPPETFGNLLLLYCKYEYFDLAADVLAENAHLIYKFLTPYLYDFLDAVITCQTAPEEAFIKLDGLAGMLTEVLRKLTIQVQEARHNRDDEAIKKAVNEYDETMEKYIPVLMAQAKIYWNLENYPMVEKIFRKSVEFCNDHDVWKLNVAHVLFMQENKYKEAIGFYEPIVKKHYDNILNVSAIVLANLCVSYIMTSQNEEAEELMRKIEKEEEQLSYDDPDKKMYHLCIVNLVIGTLYCAKGNYDFGISRVIKSLEPYNKKLGTDTWYYAKRCFLSLLENMSKHTIMLRDSVIQECVQFLEHCELHGRNIPAVIEQPLEEERMHVGKNTVTYESRQLKALIYEIIGWNI”, the protein production is reported as “failed”.
With “MPLGHLFDKSYDEMHCNQKNWEMAERKLMEDAVQSALSKQNLKKEDIDIFLAGDLLNQNVTANYVARHLKIPFLCLFGACSTSMESIAISSALIDGGFAKRALAATSSHNATAERQFRYPTEYGGQKPGTATSTVTGSGAVVLSQQPGGIKITSATVGRVIDLGITDSQDMGSAMAPAAADTIKQHLEDLGRTPDDYDLILTGDLSGVGSPILKDLLKEEGINVGTKHNDCGLMIYTPDQQVFAGGSGCACSAVVTFAHIFKEIEAGRLNRVLVVATGALLSPTIIQQKESIPCIAHGVVFERAERGNALEHHHHHH” the protein production was “not failed”.
With “MEAEVWEAEGYNLVLDSDLYDADGYDVPDPGLLTEKNELTFTEPSQVLPFLTSSQQWQSLTPRARARRLWLLLRTSLHEVVEKEKRAELRAARLTHGLEPLRRLEVAAGLRSVAQDPVGGRFVVLDGAGRLHLHKEDGWAQETLLAPVRLTGLVTVLGPLGAVGRFVGWGPAGLAILRPNLSLLWLSEQGVGRAPGWAPTCCLPVPDLRLLLVAEMNSSLALWQFRSGGRRLVLRGSALHPPPSPTGRLMRLAVAPVPPHHVLRCFAAYGSAVLTFDLHAWTLVDVRRDLHKTTISDLAYCEEVEAMVTASRDSTVKVWEADWQIRMVFVGHTGPVTAMTVLPNTTLVLSASQDGTLRTWDLQAAAQVGEVALGFWGQDKLSRRVGRLLAPVRPGWPVLSLCASSMQLWRVRELYSPLAQLPAKVLHVQVAPALPAPAHQSLPTRLVCACADGSVYLLSAATGRIVSSLLLEPEDCAAAVAYCLPREALWLLTRAGHLVRANAARCPMSVLHRVCPPPPPAPQPCCLHLYSHLTDLGGAFSSWEIVRQHWGELRCSSVACAWKNKNRYLPVVGHTDGTLSVLEWLSSKTVFQTEAHSPGPVVAIASTWNSIVSSGGDLTVKMWRVFPYAEESLSLLRTFSCCYPAVALCALGRRVTAGFEDPDSATYGLVQFGLGDSPRLDHRPQDDPTDHITGLCCCPTLKLYACSSLDCTVRIWTAENRLLRLLQLNGAPQALAFCSNSGDLVLALGSRLCLVSHRLYLPTSYLVKKMCRKAPDVVDDPPLPLMSQESLTSAQLQRLTNLHGAASLRSHAGLLSPPGGPPFPLWVGAWRCGALWS” the protein production was “failed”.
